Data published in US20140044713A1.
Blank lines part the entries; values can stand above or below the substance they belong to.

Key:
[1] = molecular target: Lgr5 (endogenous, or expression construct whose tag is not stated) (human) (UniProt O75473); experiment: TAP (anti-FLAG, anti-HA) + mass spectrometry, bait stably expressed in LS174T cells, Exp 2, prey LGR5
[2] = molecular target: LRP6 (endogenous) (human) (UniProt O75581); experiment: TAP (anti-FLAG, anti-HA) + mass spectrometry, bait stably expressed in LS174T cells, Exp 2, prey LRP6
LRP6 (endogenous) (human), sequence (O75581 20-1613): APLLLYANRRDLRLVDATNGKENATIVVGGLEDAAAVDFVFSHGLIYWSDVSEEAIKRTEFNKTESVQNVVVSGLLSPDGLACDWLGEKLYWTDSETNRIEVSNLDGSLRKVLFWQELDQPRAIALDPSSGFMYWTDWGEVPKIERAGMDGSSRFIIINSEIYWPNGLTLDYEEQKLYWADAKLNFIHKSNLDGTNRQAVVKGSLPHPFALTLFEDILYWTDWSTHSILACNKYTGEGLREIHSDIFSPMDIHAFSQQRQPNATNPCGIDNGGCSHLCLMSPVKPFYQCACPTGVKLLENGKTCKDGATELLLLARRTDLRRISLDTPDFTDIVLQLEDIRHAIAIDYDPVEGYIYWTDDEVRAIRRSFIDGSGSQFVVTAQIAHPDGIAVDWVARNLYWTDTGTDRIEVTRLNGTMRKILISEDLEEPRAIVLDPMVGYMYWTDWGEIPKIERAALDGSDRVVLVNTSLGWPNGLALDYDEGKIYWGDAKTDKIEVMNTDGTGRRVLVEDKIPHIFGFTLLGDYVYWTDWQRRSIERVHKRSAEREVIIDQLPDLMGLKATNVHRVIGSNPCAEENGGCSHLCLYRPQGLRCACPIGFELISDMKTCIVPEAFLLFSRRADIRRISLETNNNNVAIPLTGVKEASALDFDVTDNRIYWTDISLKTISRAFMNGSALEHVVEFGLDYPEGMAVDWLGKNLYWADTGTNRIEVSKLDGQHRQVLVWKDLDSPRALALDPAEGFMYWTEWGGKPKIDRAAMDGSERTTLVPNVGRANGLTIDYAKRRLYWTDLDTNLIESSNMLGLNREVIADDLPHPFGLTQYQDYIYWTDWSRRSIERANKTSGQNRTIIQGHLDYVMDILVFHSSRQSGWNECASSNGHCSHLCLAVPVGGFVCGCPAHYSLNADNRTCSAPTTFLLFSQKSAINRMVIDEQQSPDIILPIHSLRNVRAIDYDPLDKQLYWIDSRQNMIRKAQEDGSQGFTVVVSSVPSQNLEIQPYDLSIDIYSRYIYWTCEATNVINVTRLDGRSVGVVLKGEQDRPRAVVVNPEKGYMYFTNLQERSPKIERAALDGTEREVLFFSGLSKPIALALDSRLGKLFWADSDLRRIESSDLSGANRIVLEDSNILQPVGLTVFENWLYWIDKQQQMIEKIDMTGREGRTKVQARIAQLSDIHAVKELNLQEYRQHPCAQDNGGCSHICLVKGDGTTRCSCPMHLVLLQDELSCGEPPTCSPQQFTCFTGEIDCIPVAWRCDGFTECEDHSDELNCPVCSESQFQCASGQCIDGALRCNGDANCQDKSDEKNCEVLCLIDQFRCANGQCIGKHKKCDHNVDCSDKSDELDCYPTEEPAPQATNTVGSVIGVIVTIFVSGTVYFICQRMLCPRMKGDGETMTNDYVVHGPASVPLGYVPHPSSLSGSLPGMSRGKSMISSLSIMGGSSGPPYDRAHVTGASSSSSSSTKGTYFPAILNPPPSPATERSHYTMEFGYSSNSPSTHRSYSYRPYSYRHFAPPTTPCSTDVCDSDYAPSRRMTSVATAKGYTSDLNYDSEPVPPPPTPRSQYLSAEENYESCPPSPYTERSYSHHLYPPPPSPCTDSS

[3] = molecular target: Frz5 (endogenous, LS174T cells) (human) (UniProt Q13467); experiment: TAP (anti-FLAG, anti-HA) + mass spectrometry, bait stably expressed in LS174T cells, Exp 2, prey Frzd5
[4] = molecular target: Frz7 (endogenous, LS174T cells) (human) (UniProt O75084); experiment: TAP (anti-FLAG, anti-HA) + mass spectrometry, bait stably expressed in LS174T cells, Exp 2, prey Frzd7
[5] = molecular target: LRP6 (endogenous) (human) (UniProt O75581); experiment: TAP (anti-FLAG, anti-HA) + mass spectrometry, bait stably expressed in LS174T cells, Exp 3, prey LRP6
[6] = molecular target: LRP5 (endogenous) (human) (UniProt O75197); experiment: TAP (anti-FLAG, anti-HA) + mass spectrometry, bait stably expressed in LS174T cells, Exp 4, prey LRP5
LRP5 (endogenous) (human), sequence (O75197 32-1615): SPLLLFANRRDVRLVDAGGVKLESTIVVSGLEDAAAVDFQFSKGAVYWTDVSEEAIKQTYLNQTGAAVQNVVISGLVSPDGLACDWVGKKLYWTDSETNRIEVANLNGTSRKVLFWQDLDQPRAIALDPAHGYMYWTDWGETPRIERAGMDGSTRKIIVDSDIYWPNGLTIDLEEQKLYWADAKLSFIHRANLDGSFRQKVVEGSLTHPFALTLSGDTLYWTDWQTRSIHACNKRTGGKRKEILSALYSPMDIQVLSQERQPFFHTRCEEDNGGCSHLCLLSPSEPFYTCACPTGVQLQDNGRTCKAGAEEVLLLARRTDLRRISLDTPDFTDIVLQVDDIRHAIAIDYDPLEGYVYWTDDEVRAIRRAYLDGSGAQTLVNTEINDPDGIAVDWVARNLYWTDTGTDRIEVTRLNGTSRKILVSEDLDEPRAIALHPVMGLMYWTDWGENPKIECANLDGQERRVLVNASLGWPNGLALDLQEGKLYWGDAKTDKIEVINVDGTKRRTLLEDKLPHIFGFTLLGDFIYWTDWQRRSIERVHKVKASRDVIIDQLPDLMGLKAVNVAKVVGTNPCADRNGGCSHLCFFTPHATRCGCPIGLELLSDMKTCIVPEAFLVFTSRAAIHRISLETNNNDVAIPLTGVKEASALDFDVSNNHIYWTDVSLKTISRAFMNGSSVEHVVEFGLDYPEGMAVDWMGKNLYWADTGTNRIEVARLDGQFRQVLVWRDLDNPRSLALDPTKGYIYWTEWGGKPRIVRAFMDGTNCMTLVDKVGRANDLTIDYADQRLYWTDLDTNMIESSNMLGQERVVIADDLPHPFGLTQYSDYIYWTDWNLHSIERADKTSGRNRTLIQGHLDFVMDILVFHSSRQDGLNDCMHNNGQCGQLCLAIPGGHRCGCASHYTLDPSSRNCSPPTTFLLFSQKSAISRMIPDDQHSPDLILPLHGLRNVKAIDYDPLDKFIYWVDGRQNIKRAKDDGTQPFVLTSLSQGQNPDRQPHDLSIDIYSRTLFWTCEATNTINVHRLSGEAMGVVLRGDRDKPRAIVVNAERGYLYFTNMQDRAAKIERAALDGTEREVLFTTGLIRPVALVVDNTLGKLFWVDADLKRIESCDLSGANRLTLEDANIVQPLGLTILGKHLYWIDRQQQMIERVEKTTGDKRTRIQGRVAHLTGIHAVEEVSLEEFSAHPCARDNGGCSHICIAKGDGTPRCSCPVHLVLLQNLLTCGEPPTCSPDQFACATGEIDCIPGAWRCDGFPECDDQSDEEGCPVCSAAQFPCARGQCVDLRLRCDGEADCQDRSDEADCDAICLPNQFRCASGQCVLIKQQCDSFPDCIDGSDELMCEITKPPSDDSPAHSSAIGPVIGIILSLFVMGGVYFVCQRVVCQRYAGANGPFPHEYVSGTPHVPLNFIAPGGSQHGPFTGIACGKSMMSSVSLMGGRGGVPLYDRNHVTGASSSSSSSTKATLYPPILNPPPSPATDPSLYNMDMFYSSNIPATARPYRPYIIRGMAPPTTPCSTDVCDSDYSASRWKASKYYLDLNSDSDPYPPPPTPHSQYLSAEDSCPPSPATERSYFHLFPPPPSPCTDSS

[7] = molecular target: LRP6 (endogenous) (human) (UniProt O75581); experiment: TAP (anti-FLAG, anti-HA) + mass spectrometry, bait stably expressed in LS174T cells, Exp 4, prey LRP6
[8] = molecular target: LRP5 (endogenous) (human) (UniProt O75197); experiment: TAP (anti-FLAG, anti-HA) + mass spectrometry, bait stably expressed in LS174T cells, Exp 5, prey LRP5
[9] = molecular target: LRP6 (endogenous) (human) (UniProt O75581); experiment: TAP (anti-FLAG, anti-HA) + mass spectrometry, bait stably expressed in LS174T cells, Exp 5, prey LRP6
[10] = molecular target: LRP5 (endogenous) (human) (UniProt O75197); experiment: TAP (anti-FLAG, anti-HA) + mass spectrometry, bait stably expressed in LS174T cells, Exp 6, prey LRP5
[11] = molecular target: Frz6 (endogenous, LS174T cells) (human) (UniProt O60353); experiment: TAP (anti-FLAG, anti-HA) + mass spectrometry, bait stably expressed in LS174T cells, Exp 3, prey Frzd6
Frz6 (endogenous, LS174T cells) (human), sequence (O60353 19-706): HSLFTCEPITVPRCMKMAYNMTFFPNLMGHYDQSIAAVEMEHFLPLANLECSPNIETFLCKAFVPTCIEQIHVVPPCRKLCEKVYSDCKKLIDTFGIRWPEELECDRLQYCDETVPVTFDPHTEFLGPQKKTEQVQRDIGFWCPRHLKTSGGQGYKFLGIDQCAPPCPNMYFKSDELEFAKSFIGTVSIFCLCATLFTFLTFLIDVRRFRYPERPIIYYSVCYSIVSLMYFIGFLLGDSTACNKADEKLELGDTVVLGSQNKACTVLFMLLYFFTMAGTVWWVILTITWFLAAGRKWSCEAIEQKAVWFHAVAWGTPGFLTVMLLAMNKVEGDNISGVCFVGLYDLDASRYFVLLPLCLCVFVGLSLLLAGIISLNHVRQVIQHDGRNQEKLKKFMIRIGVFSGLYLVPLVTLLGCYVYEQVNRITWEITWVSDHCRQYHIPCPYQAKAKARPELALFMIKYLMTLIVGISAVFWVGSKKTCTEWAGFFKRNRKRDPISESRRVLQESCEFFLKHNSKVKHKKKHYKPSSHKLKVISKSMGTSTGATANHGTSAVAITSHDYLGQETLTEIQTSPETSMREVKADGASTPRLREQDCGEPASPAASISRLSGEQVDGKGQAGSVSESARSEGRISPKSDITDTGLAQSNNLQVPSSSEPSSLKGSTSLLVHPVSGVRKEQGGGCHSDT

[12] = molecular target: Frz6 (endogenous, LS174T cells) (human) (UniProt O60353); experiment: TAP (anti-FLAG, anti-HA) + mass spectrometry, bait stably expressed in LS174T cells, Exp 4, prey Frzd6
[13] = molecular target: Frz6 (endogenous, LS174T cells) (human) (UniProt O60353); experiment: TAP (anti-FLAG, anti-HA) + mass spectrometry, bait stably expressed in LS174T cells, Exp 5, prey Frzd6
[14] = molecular target: Frz6 (endogenous, LS174T cells) (human) (UniProt O60353); experiment: TAP (anti-FLAG, anti-HA) + mass spectrometry, bait stably expressed in LS174T cells, Exp 6, prey Frzd6
[15] = molecular target: Lgr4 (endogenous, or expression construct whose tag is not stated) (human) (UniProt Q9BXB1); experiment: cell-based or functional assay
[16] = molecular target: Lgr4 (endogenous, or expression construct whose tag is not stated) (human) (UniProt Q9BXB1); experiment: TAP (anti-FLAG, anti-HA) + mass spectrometry, bait stably expressed in LS174T cells, Exp 7, prey LGR4
[17] = molecular target: Lgr5 (endogenous, or expression construct whose tag is not stated) (human) (UniProt O75473); experiment: TAP (anti-FLAG, anti-HA) + mass spectrometry, bait stably expressed in LS174T cells, Exp 7, prey LGR5
[18] = molecular target: LRP5 (endogenous) (human) (UniProt O75197); experiment: TAP (anti-FLAG, anti-HA) + mass spectrometry, bait stably expressed in LS174T cells, Exp 7, prey LRP5
[19] = molecular target: LRP6 (endogenous) (human) (UniProt O75581); experiment: TAP (anti-FLAG, anti-HA) + mass spectrometry, bait stably expressed in LS174T cells, Exp 7, prey LRP6

Lgr5 (endogenous, or expression construct whose tag is not stated) (human), sequence (O75473 22-907): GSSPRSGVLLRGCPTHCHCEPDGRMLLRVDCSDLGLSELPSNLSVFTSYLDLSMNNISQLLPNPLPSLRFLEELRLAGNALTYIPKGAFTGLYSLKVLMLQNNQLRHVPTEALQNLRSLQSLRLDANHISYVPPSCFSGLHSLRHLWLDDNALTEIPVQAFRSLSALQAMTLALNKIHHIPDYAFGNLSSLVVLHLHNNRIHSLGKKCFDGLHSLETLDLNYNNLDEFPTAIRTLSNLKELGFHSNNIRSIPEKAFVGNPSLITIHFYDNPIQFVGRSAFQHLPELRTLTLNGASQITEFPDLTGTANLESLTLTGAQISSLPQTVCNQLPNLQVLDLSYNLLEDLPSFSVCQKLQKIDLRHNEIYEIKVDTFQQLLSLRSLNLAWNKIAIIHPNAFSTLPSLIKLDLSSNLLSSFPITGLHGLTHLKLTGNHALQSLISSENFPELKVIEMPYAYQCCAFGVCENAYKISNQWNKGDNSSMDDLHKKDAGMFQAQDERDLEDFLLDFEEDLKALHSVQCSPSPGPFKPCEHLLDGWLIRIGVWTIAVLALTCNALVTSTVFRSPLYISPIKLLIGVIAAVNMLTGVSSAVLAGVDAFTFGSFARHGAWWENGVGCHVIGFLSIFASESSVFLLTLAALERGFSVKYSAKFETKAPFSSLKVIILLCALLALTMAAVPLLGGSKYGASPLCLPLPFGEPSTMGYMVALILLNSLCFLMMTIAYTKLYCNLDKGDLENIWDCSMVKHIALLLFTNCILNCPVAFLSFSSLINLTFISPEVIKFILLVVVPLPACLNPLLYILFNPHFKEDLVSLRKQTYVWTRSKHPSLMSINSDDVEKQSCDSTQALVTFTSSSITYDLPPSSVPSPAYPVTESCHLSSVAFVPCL

# unique peptides [1]: 7
MASCOT Protein score (MudPit) [1]: 62
assigned spectra [1]: 10
# unique peptides [2]: 3
MASCOT Protein score (MudPit) [2]: 32
assigned spectra [2]: 3
# unique peptides [3]: 1
MASCOT Protein score (MudPit) [3]: 22
assigned spectra [3]: 1
# unique peptides [4]: 1
MASCOT Protein score (MudPit) [4]: 87
assigned spectra [4]: 4
Substance: FLAG/HA-tagged Lgr4 (from UniProt Q9BXB1 25-951) (receptor)

# unique peptides [5]: 3
MASCOT Protein score (MudPit) [5]: 71
assigned spectra [5]: 3
# unique peptides [6]: 2
MASCOT Protein score (MudPit) [6]: 91
assigned spectra [6]: 3
# unique peptides [7]: 2
MASCOT Protein score (MudPit) [7]: 43
assigned spectra [7]: 2
# unique peptides [8]: 3
MASCOT Protein score (MudPit) [8]: 122
assigned spectra [8]: 3
# unique peptides [9]: 6
MASCOT Protein score (MudPit) [9]: 91
assigned spectra [9]: 6
# unique peptides [10]: 1
MASCOT Protein score (MudPit) [10]: 41
assigned spectra [10]: 1
# unique peptides [11]: 1
MASCOT Protein score (MudPit) [11]: 53
assigned spectra [11]: 1
# unique peptides [12]: 1
MASCOT Protein score (MudPit) [12]: 94
assigned spectra [12]: 2
# unique peptides [13]: 6
MASCOT Protein score (MudPit) [13]: 193
assigned spectra [13]: 11
# unique peptides [14]: 5
MASCOT Protein score (MudPit) [14]: 140
assigned spectra [14]: 8
Substance: FLAG/HA-tagged Lgr5 (from UniProt O75473 22-907) (receptor)

TOPFlash activity, Wnt3A with Rspo-1 against Wnt3A alone, HEK293T cells [15]: 12 fold
Substance: Rspo-1 (as added in the TOPflash assay of FIG. 5B) (from UniProt Q2MKA7 21-263) (ligand)

# unique peptides [16]: 10
MASCOT Protein score (MudPit) [16]: 456
assigned spectra [16]: 30
# unique peptides [17]: 2
MASCOT Protein score (MudPit) [17]: 33
assigned spectra [17]: 2
# unique peptides [18]: 3
MASCOT Protein score (MudPit) [18]: 166
assigned spectra [18]: 5
# unique peptides [19]: 10
MASCOT Protein score (MudPit) [19]: 279
assigned spectra [19]: 14
Substance: tagged Frizzled5 (Frz5) (from UniProt Q13467 27-585) (receptor)
